The results in this text go back to patent publication US20260001953A1 (TWIST BIOSCIENCE, published 2026).

As usually defined, the koff is the first-order rate constant of dissociation. A lower koff goes with slow dissociation. One may read the kon as the second-order rate constant of association. The term Kd denotes a measure of binding affinity in units of concentration. The low end stands for a tighter complex, the high end for a looser complex. The EC50 is the concentration at which the effect is half-maximal. A high value points to a less potent agent.

T1: mouse CD117 (mouse, UniProt P05532)
T1 construct: antigen of the Carterra SPR kinetics; also called murine CD117
T1 sequence (receptor, looked up): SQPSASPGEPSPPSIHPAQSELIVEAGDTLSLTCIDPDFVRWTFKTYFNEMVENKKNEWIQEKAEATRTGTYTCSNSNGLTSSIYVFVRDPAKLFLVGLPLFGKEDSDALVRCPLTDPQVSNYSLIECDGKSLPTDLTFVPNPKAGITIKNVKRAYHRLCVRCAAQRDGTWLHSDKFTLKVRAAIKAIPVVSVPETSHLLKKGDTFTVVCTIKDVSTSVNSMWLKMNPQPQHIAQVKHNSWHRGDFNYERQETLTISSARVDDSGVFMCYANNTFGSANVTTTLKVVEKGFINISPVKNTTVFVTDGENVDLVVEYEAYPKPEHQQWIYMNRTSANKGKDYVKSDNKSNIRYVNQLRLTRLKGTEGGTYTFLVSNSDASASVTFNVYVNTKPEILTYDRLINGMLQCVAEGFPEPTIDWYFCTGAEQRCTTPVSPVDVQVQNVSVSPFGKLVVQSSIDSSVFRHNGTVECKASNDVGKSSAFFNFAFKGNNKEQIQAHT

B1: SIGLEC-8-53 (antibody, human IgG1, kappa, V domains shown)
VH: EVQLLESGGGLVQPGGSLRLSCAASGFTFSSSAMAWVRQAPGKGLEWVSEISDSGGSTYYADSVKGRFTISRDNSKNTLYLQMNSLRAEDTAVYYCAREESGKYLSLDHWGQGTLVTVSS
VL: DIQMTQSPSSLSASVGDRVTITCRASQTIINYLNWYQQKPGKAPKLLIYGASNVQSGVPSRFSGSGSGTDFTLTISSLQPEDFATYYCQQSYVTPPTFGGGTKVEIKR
notes: tested as expressed and purified mAb
B2: SIGLEC-8-31 (antibody, human IgG1, kappa, V domains shown)
VH: B1 VH with S31T, S32D, A35S, E50T, I51V, D53G, G56A, E100D, H109Y
VL: B1 VL with T28S, I30T, G50A, A51S, N53T, V54L, Q55E, V93I, P96L
notes: as for B1
B3: SIGLEC-8-61 (antibody, human IgG1, kappa, V domains shown)
VH: EVQLLESGGGLVQPGGSLRLSCAASGFTFSSSAMTWVRQAPGKGLEWVTAISESGGSTYYADSVKGRFTISRDNSKNTLYLQMNSLRAEDTAVYYCAREGGDYYYGIDVWGQGTLVTVSS
VL: B1 VL with S26G, T28S, I30N, N31R, V54L, Y92F, V93T, P96L
notes: tested as expressed and purified mAb; also called SIGLEC-61
B4: SIGLEC-8-45 (antibody, human IgG1, kappa, V domains shown)
VH: EVQLLESGGGLVQPGGSLRLSCAASGFTFSSGAMSWVRQAPGKGLEWVSTISGSGASTYYADSVKGRFTISRDNSKNTLYLQMNSLRAEDTAVYYCAREGSSSWNAFDIWGQGTLVTVSS
VL: B1 VL with I30A, G50A, V54L, Q55E, S56D, V93N, P96I
notes: as for B1
B5: SIGLEC-8-60 (antibody, human IgG1, kappa, V domains shown)
VH: B1 VH with F29L, S31N, S32Y, A35T, E50T, I51V, D53G, G56A, E100N, H109Y
VL: DIQMTQSPSSLSASVGDRVTITCRASQNIASYLNWYQQKPGKAPKLLIYATSDLQSGVPSRFSGSGSGTDFTLTISSLQPEDFATYYCQQTYNIPLTFGGGTKVEIKR
notes: as for B1
B6: SIGLEC-8-30 (antibody, human IgG1, kappa, V domains shown)
VH: EVQLLESGGGLVQPGGSLRLSCAASGFTFSHYALSWVRQAPGKGLEWVSIISGSGDTTYYADSVKGRFTISRDNSKNTLYLQMNSLRAEDTAVYYCAKATYFYDSSGYRRATYFDYWGQGTLVTVSS
VL: B5 VL with N28G, A30S, S31R, Y32H, T51E, D53T, N93T, I94L, L96Y
notes: as for B1
B7: SIGLEC-8-4 (antibody, human IgG1, kappa, V domains shown)
VH: B4 VH with T28S, G32D, T50G, S54G, A56G, T58A, S101A, S103N, W104Y, N105A
VL: DIQMTQSPSSLSASVEDRVTITCRAGQSITPYLNWYQQKPGKAPKLLIYATSSLHSGVPSRFSGSGSGTDFTLTISSLQPEDFATYYCQQSHSSPLTFGGGTKVEIKR
notes: as for B1
B8: SIGLEC-8-20 (antibody, human IgG1, kappa, V domains shown)
VH: EVQLLESGGGLVQPGGSLRLSCAASGFTFSSFDMTWVRQAPGKGLEWVSSISGGGGSTYYADSVKGRFTISRDNSKNTLYLQMNSLRAEDTAVYYCAREDGSGSYSMDVWGQGTLVTVSS
VL: B1 VL with T28S, I30D, N34H, G50A, V54L, Q55E, S56G, V93K, P96V
notes: as for B1
B9: SIGLEC-8-52 (antibody, human IgG1, kappa, V domains shown)
VH: B1 VH with S30R, S32Y, A33V, A35S, E50S, D53L
VL: DIQMTQSPSSLSASVGDRVTITCRASQSVSNFLNWYQQKPGKAPKLLIYAASNLEGGVPSRFSGSGSGTDFTLTISSLQPEDFATYYCQQTYSTPITFGGGTKVEIKR
notes: as for B1
B10: CD117-15 (antibody, human IgG1, kappa, V domains shown)
VH: EVQLLESGGGLVQPGGSLRLSCAASGFTFSDYPMSWVRQAPGKGLEWVSAIGGSGGDTYYADSVKGRFTISRDNSKNTLYLQMNSLRAEDTAVYYCARGAYDGEGFDYWGQGTLVTVSS
VL: B5 VL with A25T, N28S, A30G, A50S, T51A, D53R, Q55E, I94T, L96W
notes: detected with anti-human IgG in FACS
B11: CD117-3 (antibody, human IgG1, kappa, V domains shown)
VH: EVQLLESGGGLVQPGGSLRLSCAASGFSFSSYAMSWVRQAPGKGLEWVSAISGTGGNTYYADSVKGRFTISRDNSKNTLYLQMNSLRAEDTAVYYCARRNDFWSDAFDIWGQGTLVTVSS
VL: B7 VL with E16G, G26S, S28N, T30Y, P31T, A50D, T51A, H92S, S94T, L96Y
notes: as for B10
B12: SIGLEC-8-59 (antibody, human IgG1, kappa, V domains shown)
VH: EVQLLESGGGLVQPGGSLRLSCAASGFTFTSYAVSWVRQAPGKGLEWVSSISGSGGSAYYADSVKGRFTISRDNSKNTLYLQMNSLRAEDTAVYYCARDTVGYGMDVWGQGTLVTVSS
VL: B1 VL with I30S, N31G, N34S, G50S, N53R, V54L, Q55H, S91G, V93S, P96L
notes: as for B1
B13: CD117-8 (antibody, human IgG1, kappa, V domains shown)
VH: EVQLLESGGGLVQPGGSLRLSCAASGFTLTSYAMSWVRQAPGKGLEWVSTISGSGGYTYYADSVKGRFTISRDNSKNTLYLQMNSLRAEDTAVYYCARDSGYDRGLDYWGQGTLVTVSS
VL: B5 VL with N28S, I29V, A30R, S31T, A50D, T51A, D53T, T91S, I94T, T97A
notes: as for B10
B14: CD117-4 (antibody, human IgG1, kappa, V domains shown)
VH: EVQLLESGGGLVQPGGSLRLSCAASGFTFSRSAMSWVRQAPGKGLEWVSAISAGGGNTYYADSVKGRFTISRDNSKNTLYLQMNSLRAEDTAVYYCAREQDLWSGTFDYWGQGTLVTVSS
VL: B1 VL with S26R, T28S, I30S, N31S, G50D, N53S, V54L, Q55R, V93K, P96W
notes: as for B10

Where a chain is given by its changes, count along the chain named.

T2 sequence (Q9NYZ4 17-363 limits assumed): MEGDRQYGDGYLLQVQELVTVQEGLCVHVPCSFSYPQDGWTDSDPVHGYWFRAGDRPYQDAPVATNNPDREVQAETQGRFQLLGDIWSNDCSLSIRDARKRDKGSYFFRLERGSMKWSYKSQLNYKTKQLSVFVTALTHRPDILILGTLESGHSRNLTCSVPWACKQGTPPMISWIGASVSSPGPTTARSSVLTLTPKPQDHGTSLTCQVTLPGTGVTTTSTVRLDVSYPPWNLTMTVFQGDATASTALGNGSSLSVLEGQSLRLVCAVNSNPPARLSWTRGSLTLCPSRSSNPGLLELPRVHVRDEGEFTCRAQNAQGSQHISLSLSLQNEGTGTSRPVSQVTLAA

One test has as its target T2, Sialic acid-binding immunoglobulin-like lectin 8 (SIGLEC-8), antigen of the Carterra SPR studies (UniProt Q9NYZ4 17-363, limits assumed). Description: Carterra SPR kinetics, summary table. The method in brief:
(§1)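 On a Carterra instrument, surface plasmon resonance was used to measure how antibodies bind SIGLEC-8, with rate constants and dissociation constants as read-outs. The antibodies were taken from synthetic libraries by bead-based panning and clonal ELISA screening, then expressed and purified.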
Turning to B1, the off-rate (koff) was found to be 4.78e-05 s⁻¹ and the kon is 259000 M⁻¹ s⁻¹.
For B2 the same measures were 5.63e-05 s⁻¹ and 152000 M⁻¹ s⁻¹.
Turning to B3, the dissociation rate constant (koff) was determined as 3.67e-05 s⁻¹ and the association rate constant (kon) is 390000 M⁻¹ s⁻¹.
For B4, in that order: 8.37e-05 s⁻¹ and 146000 M⁻¹ s⁻¹.
B5 gave a dissociation rate constant (koff) of 0.000116 s⁻¹ and an on-rate constant (kon) of 129000 M⁻¹ s⁻¹.
B6: the koff was 0.000124 s⁻¹ and the kon stood at 145000 M⁻¹ s⁻¹.
For B7 the same measures were 3.12e-05 s⁻¹ and 165000 M⁻¹ s⁻¹.
In turn, B8 returned a dissociation rate constant (koff) of 3.4e-05 s⁻¹ and a kon of 445000 M⁻¹ s⁻¹.
For B9 the same measures were 6.22e-05 s⁻¹ and 84900 M⁻¹ s⁻¹.

In the next test the target is T1, mouse CD117. Description: Carterra SPR, mouse CD117. The protocol: (§2) To further evaluate the antibodies discovered during the screens, 21 clones were selected for detailed characterization and were analyzed for target binding kinetics by a Carterra SPR instrument. The binding kinetics of the anti-CD117 antibodies for human CD117, cynomolgus monkey CD117, and murine CD117 are shown in FIG. 29A-29B.
With B10, the binding result is listed as “no binding”.
Still for that read-out and setting: the result for B11 reads “no binding”.

The target in the next test is T2, Sialic acid-binding immunoglobulin-like …. Put plainly: Carterra SPR. The gist of the method:
as §1
The molecule B12 showed a Kd of 31.2 nM.
On the same count and under the same terms, the result for B1 reads 0.185 nM; that for B2, 0.37 nM.
On the same count and under the same terms, the result for B3 reads 0.0942 nM; that for B4, 0.574 nM.
Molecule B5 registered a Kd of 0.895 nM.
On the same count and under the same terms, the result for B6 reads 0.856 nM; that for B7, 0.189 nM.
The molecule B8 returned a dissociation constant (Kd) of 0.0764 nM. Against the preceding molecule, the Kd is about 2.5-fold lower.
On the same count and under the same terms, for B9 the value was 0.733 nM.

For the next test, the target named is T3, Cluster of differentiation 117 (CD117), antigen of epitope binning and ELISA (UniProt P10721 26-520, limits assumed).
T3 construct: also called tyrosine-protein kinase KIT; mast/stem cell growth factor receptor (SCFR)
T3 sequence (P10721 26-520 limits assumed): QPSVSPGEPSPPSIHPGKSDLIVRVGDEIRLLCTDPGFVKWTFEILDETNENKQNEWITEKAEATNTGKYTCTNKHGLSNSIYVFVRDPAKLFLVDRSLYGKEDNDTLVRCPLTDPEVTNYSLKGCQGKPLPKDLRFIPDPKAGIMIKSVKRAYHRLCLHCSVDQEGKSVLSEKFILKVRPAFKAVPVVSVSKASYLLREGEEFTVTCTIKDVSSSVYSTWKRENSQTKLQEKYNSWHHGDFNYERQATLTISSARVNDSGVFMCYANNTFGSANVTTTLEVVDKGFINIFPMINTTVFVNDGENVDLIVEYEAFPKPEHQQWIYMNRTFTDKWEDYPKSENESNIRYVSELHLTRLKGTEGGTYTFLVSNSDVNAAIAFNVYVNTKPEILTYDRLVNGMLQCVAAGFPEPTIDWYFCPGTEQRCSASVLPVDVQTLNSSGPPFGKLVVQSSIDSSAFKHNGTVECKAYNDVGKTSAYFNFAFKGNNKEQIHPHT
Description: Carterra SPR, human CD117. The protocol:
as §2
On to B13, for which the binding result was “no binding”.
Same read-out and setting: for B14 the value was “no binding”.

For a further test, the target named is T4, CD117 transiently expressed on Expi293 cells (UniProt P10721 26-976, limits assumed).
T4 construct: whole, on cells; Two cassettes are described (P2A mVenus and direct mVenus fusion); also called CD117 transient cells; the transient cell line
T4 sequence (P10721 26-976 limits assumed): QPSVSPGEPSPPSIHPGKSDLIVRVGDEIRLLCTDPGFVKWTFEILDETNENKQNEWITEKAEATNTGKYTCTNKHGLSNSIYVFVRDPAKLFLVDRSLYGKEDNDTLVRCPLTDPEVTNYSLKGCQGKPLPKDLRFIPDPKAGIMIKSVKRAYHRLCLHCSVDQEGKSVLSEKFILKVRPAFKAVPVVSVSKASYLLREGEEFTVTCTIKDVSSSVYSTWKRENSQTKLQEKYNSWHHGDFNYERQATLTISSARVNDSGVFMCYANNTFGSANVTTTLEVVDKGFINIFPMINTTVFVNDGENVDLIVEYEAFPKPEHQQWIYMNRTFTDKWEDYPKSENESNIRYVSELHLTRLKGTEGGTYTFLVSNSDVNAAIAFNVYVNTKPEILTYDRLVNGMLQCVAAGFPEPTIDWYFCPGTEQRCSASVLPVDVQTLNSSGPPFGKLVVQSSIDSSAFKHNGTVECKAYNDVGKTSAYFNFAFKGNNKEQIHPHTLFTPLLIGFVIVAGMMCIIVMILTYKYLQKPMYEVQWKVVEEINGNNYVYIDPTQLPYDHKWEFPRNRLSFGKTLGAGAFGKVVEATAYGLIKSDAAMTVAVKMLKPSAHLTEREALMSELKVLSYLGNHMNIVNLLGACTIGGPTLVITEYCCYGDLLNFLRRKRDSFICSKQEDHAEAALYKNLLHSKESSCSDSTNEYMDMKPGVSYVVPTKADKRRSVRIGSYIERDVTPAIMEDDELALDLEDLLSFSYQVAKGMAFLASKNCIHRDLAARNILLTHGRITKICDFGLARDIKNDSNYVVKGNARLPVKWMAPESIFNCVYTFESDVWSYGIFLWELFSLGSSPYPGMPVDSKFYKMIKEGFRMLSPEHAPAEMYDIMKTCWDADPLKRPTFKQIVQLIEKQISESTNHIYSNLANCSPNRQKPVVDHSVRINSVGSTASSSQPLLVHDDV
Put plainly: FACS cell binding, Expi293 transiently expressing CD117. The protocol: (§3) The transient expression of CD117 was validated with a control antibody, Expi293 (FIGS. 17A-17B). Expi293, […], was transiently transfected with CD117 48-hours post-transfection. The secondary antibody used was APC Goat anti-human IgG (diluted 1:400). 100,000 cells per well were blocked with 1×PBS+0.5% BSA for 1 hour, stained with 100 μL of the primary antibody for 1 hour, and stained with the secondary antibody for one hour, all with 3× washes in between each staining.
B13 gave an EC50 of 351 nM.
Consider B14, for which the midpoint of the response, the EC50, lay at 3.42 nM.

The target of another test is T5, SIGLEC-8 transiently expressed on cells (UniProt Q9NYZ4 17-499, limits assumed).
T5 construct: whole, on cells; Two cassettes are described (P2A mVenus and direct mVenus fusion); also called the transient line; pTT5-SIGLEC-8 P2A mVenus
T5 sequence (Q9NYZ4 17-499 limits assumed): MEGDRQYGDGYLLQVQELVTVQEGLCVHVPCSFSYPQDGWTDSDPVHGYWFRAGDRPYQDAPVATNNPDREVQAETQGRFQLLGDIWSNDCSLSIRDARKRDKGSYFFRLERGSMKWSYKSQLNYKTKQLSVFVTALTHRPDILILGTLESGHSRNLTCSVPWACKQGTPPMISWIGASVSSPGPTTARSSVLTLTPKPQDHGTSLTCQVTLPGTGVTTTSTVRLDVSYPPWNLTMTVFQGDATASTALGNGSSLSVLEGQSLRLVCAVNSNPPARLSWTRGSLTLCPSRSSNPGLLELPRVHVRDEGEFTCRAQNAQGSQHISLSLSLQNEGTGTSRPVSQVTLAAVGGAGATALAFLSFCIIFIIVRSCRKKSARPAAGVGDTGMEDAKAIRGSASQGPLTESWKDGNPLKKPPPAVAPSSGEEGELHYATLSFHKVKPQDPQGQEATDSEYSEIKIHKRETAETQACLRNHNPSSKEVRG
Put plainly: cell binding titration, transient SIGLEC-8 line.
B12 had a concentration giving a half-maximal response (EC50) of 0.939 nM. This lies in the sub-nanomolar range.
On the same count and under the same terms, the result for B1 reads 0.69 nM; that for B2, 1.33 nM.
Same read-out and setting: for B3 the value was 0.494 nM; for B4, 1.81 nM.
The same measure, in the same setting: the result for B5 reads 0.653 nM; that for B6, 1.5 nM.
With B7, the midpoint of the response, the EC50, lay at 2.38 nM.
On the same count and under the same terms, the result for B8 reads 0.972 nM.
B9 yielded an EC50 of 4.07 nM. Compared with the last molecule, the EC50 is about 4.2-fold higher.

The next test addresses T4, CD117 transiently expressed on Expi293 …. Put plainly: FACS, MFI expressing / parental cells. Here is the method:
as §3
In general terms: A flow cytometer gives signals particle by particle.
For the molecule B13, the “MFI Ratio” value is 4.25.
Turning to B14, the “MFI Ratio” value was determined as 10.5.
